Results: the DeepSol protein solubility set

Assay: soluble on expression in E. coli; label from the status in PepcDB or PDB records

Sequence | soluble on expression in E. coli
MAHHHHHHMAVASKGRIADVNQEELTKIGPKIDDVLSICLASFDSLRDMAFKFQYEQAAEKAAYQSGETKPDPMTQLMHVLQRMVDLTLGTAKAVYDQTLLEWRRRKGEGDADSPASQLASSQSMTSPEVLRNSSVEDFAAGSVAWIERGSHLSLLSLEVLSSVLLAHHYLRRDLQKYMLDVNVLDYLEKVFSMERDHELCYFPEGFKTECMRLIANLTHNNVDVNAALVERDTFLFNILSATQIDEENPGMVEWAEFALRNICESSAAAREKIRKLAPQGVTDQSREILAGRCSYSFSSTGKVQLHTQKPPLH | soluble
MAQRYKRMSSTDINEYMPENLAKAIANPLFPALDSLLRAGRHVSSDDLDNHAFLSDFEPDLALFYQRYHTELVRAPEGFFYLRPRSTSLINRSVLSELDMLVGKVLCFLYLSPERLAHEGIFTNQELYDELLTLVEEKKLMKLVTNRASGSDLDREKLFEKVRTSLRRLRRLGMVITIGDTGKFRITEAVFRFGADVRLGGDVREAQLRLIRDGEAVVHTPEPSQQSLLENPTAEYDEEQTEWEDEALEHHHHHH | soluble
MMAAREQRSFRQLSLLRQFEGQSLLCASMNIPGPIKCSESLNKTFQSIINLVKEDLRGRIIFEREVHQKTGWEYYCLSDLPVSELKTKMIAIETKISIGRLMDLDVLHLVNGIPQPISRQELGFPRRQCYICQNDAKVCSRSRKHSVIEMQEAIAKFIKINH | not soluble
MRGSHHHHHHGSMSQPDATPFDYILSGGTVIDGTNAPGRLADVGVRGDRIAAVGDLSASSARRRIDVAGKVVSPGFIDSHTHDDNYLLKHRDMTPKISQGVTTVVTGNCGISLAPLAHANPPAPLDLLDEGGSFRFARFSDYLEALRAAPPAVNAACMVGHSTLRAAVMPDLRREATADEIQAMQALADDALASGAIGISTGAFYPPAAHASTEEIIEVCRPLITHGGVYATHMRDEGEHIVQALEETFRIGRELDVPVVISHHKVMGKLNFGRSKETLALIEAAMASQDVSLDAYPYVAGSTMLKQDRVLLAGRTLITWCKPYPELSGRDLEEIAAERGKSKYDVVPELQPAGAIYFMMDEPDVQRILAFGPTMIGSDGLPHDERPHPRLWGTFPRVLGHYSRDLGLFPLETAVWKMTGLTAAKFGLAERGQVQPGYYADLVVFDPATVADSATFEHPTERAAGIHSVYVNGAAVWEDQSFTGQHAGRVLNRAGA | soluble
MGSDKIHHHHHHMKILILRFSSIGDIVLTTPVIRCLKKQIPNAEIHFATKASFKSILENNPYIDKLHLLESSTASFIKQLKAERFDVVIDLHSNIRTKRIKWALKAKSFTFDKLNIRKWFYVNWKWKTMPAIHIVDRYLDTVKHLGVKNDNEGLDYFIPEKDIISRDSLPQKYAAGYVAIAIGAQHATKRLPEAKLIELIGKISHPIILLGGKDDTATAARLVAYFPDTKNILNACGTYNLNQSASIVHQCMYLYTHDTGLMHIGAALQKRIISIWGNTTPELGMYAYKTEHVNWQKEDLYCRPCSKIGYNSCPKKHFRCMNEQVLPVHEIESRWN | not soluble
MNSIKNVPARVLSRRPGHSLEAEREQFDKTQAISISKAINTQEAPVKEKHARRIILGTHHEKGAFTFWSYAIGLPLPSSSILSWKFCHVLHKVLRDGHPNVLHDCQRYRSNIREIGDLWGHLHDRYGQLVNVYTKLLLTKISFHLKHPQFPAGLEVTDEVLEKAAGTDVNNIFQLTVEMFDYMDCELKLSESVFRQLNTAIAVSQMSSGQCRLAPLIQVIQDCSHLYHYTVKLLFKLHSCLPADTLQGHRDRFHEQFHSLRNFFRRASDMLYFKRLIQIPRLPEGPPNFLRASALAEHIKPVVVIPEEAPEDEEPENLIEISTGPPAGEPVVVADLFDQTFGPPNGSVKDDRDLQIESLKREVEMLRSELEKIKLEAQRYIAQLKSQVNALEGELEEQRKQKQKALVDNEQLRHELAQLRAAQLEGERSQGLREEAERKASATEARYNKLKEKHSELVHVHAELLRKNADTAKQLTVTQQSQEEVARVKEQLAFQVEQVKRESELKLEEKSDQLEKLKRELEAKAGELARAQEALSHTEQSKSELSSRLDTLSAEKDALSGAVRQREADLLAAQSLVRETEAALSREQQRSSQEQGELQGRLAERESQEQGLRQRLLDEQFAVLRGAAAEAAGILQDAVSKLDDPLHLRCTSSPDYLVSRAQEALDAVSTLEEGHAQYLTSLADASALVAALTRFSHLAADTIINGGATSHLAPTDPADRLIDTCRECGARALELMGQLQDQQALRHMQASLVRTPLQGILQLGQELKPKSLDVRQEELGAVVDKEMAATSAAIEDAVRRIEDMMNQARHASSGVKLEVNERILNSCTDLMKAIRLLVTTSTSLQKEIVESGRGAATQQEFYAKNSRWTEGLISASKAVGWGATQLVEAADKVVLHTGKYEELIVCSHEIAASTAQLVAASKVKANKHSPHLSRLQECSRTVNERAANVVASTKSGQEQIEDRDTMDFSGLSLIKLKKQEMETQVRVLELEKTLEAERMRLGELRKQHYVLAGASGSPGEEVAIRPSTAPRSVTTKKPPLAQKPSVAPRQDHQLDKKDGIYPAQLVNY | soluble
MSDMNNPADDNNGAMDDLWAEALSEQKSTSEKSAADAVFQQFGGGDVSGTLQDIDLIMDIPVKLTVELGRTRMTIKELLRLTQGSVVALDGLAGEPLDILINGYLIAQGEVVVVADKYGVRITDIITPSERMRRLSR | not soluble
MSLSAPLGENMSNLTSEERHARLRQIYIEKERRQRLGSRMGLSPLEEEANDRLMAIRQVDEEFYNLWRNYHSQPPPFLKHLNIIDTNLYAALKSMPKGGLLHVHDSGMLRMEILIDLIYRDNLWVCVNLEQDFEDFRFSRYFPHIPPAEDYQCNWMLMSNFFQLESRLEFENRLRKILTVRPEGYKSSSELVRHLRRHQRIIHGLITFRPIWSEFIFTMLSDFYADGVHYVELRSSLPNMYDLDGNNFTILETAEALVSVSNIFKNSFKDFIGIKLIYAPSRNLNDSRMDEYLENARLLKLHFPNFFAGFDLNTFGDECNLPLLENVTQLLRIGKNIDFYFHAGESRCPDSSRPDANLLEALLLQSKRIGNAVNLPFHPEIMKVMKRLSIAVEICPLSNHYLQYFNDFRQHPAAYLIAAGFPIVIGSDYPCFWNSAPLTDDFYVAFVGVISGWGDLRLLKQFALNSFLFSSLSETEKNMAVSKWQCSWNRWVRNLVNSSGYEGHHHHHH | not soluble
DEGYWDCSVCTFRNSAEAFKCMMCDVRKGTSTRKPRPVSQ | soluble
MAHHHHHHMSTSYSVTTYMTTTYVNCEDVSGSDSEYSEYDLVNEQMQDFLLDSEDTSDGDADVEDILGFGAVFMGGLMPTRSMDAHQACAWRRTTKPNRRRIAKKSESCSSLSNAARLTASSSTTMLSDLDTVVREAVVTGGAAQRRGTRKQRRAMASGERRWLVPPLSAVSVESTDGGNDGRRQLPWFTVVFDLDETLVGARYGPIHLRPHVGELLRSLHRLPVEIIVWTAGTAHYVNPILHAIGQACGRRQWFHHIISRHKRWYRDTNVSVKDLRQLGRPLDRLVMVENNPISALPQPSLCVLLEDYLQPNAADESLLVLKGLLERLALQYERAARTSSATGTCEQASEEECPAQRHTRSPRNTLRDATATRTTALPSLELLVRDDAALQLVEFRMEDILKEDGVPMLQQAEMRELVGGADTLRCLCLCYTPPLLPSSTAVAPQGTAALMSCVSMAMRSYGSVNPLRPL | not soluble
LIGDKNTTFVEKLNSLAADHQLPQIGFSTSSEPEWQFVKDLTEVDPEHVVKSYNRQAKYHLNKNKQFCIKLRKIGRDELPAFKRITQQTADRLHYHDKSLDFYETLFDTYGKKAKFIFAEINFKEYSESIEKDLNDIQKKLTEIAGADYHNISDLSDFSASAKRHLSEGIKTETALQKRLQEAKKMHQEAKHDIVLVSVALFVIENQEVVYLYSGSDEKYEHLFAPYEIQDTMITEAVKERIPLYNFYGVSGKFDGSDGVLGFKTHFNGYTREMVGSFDFPVQKTKYYFYRLFKKILHRQ | not soluble
HLDGRGAAMMEMAGLAQKGGAVQIHCRIAEKPSDISAIRVAVGEADGVIGGDLVVTAGAKTLGLMSQGRTGAVVNSHDIVTGEFTRNTDFRVPSDRLQVSLQARLQDRVAFLDATELARILMGDSIYSNMMVFGAAWQRGLIPLSAEAIQRAIELNGAAVAQNARAFALGRWAVL | not soluble
MVMMSKQLTAQAPVDPIVLGKMGSSYGIRGWLRVFSSTEDAESIFDYQPWFIQKAGQWQQVQLESWKHHNQDMIIKLKGVDDRDAANLLTNCEIVVDSSQLPQLEEGDYYWKDLMGCQVVTTEGYDLGKVVDMMETGSNDVLVIKANLKDAFGIKERLVPFLDGQVIKKVDLTTRSIEVDWDPGFLEHHHHHH | soluble
MKHSLPDLPYDYGALEPHINAQIMQLHHSKVHAAYVNNLNVTEEKYQEALAKGDVTAQIALQPALKFNGGGHINHSIFWTNLSPNGGGEPKGELLEAIKRDFGSFDKFKEKLTAASVGVQGSGWGWLGFNKERGHLQIAACPNQDPLQGTTGLIPLLGIDVWEHAYYLQYKNVRPDYLKAIWNVINWENVTERYMACKK | soluble
KLTKSDLDILNSMKNVVDGIARMYGEHTEVVLHSLDAEAPEIIKIANGHVTERSEGAPITNLARMKLREGKDVSDSYLTKTSNGKTLHSITTIVRNPKNKPIGLLCINVDMDAPMQAFLKAMLPQQHTECCVGGAR | not soluble
MKIYYLGPEGSYTEKAALKFAELTNLKITPAESIYSVFREVERGNYGVVPTENSIEGSVTLTLDLLLRFPVKIFGETSLEIKHALLGYDLSKIRVVLSHPQALAQCREFIQRMRWGVRETNSTAEAVKIVAESNDPTLAAIGSREAAEIYGLKVLAEDIQDYPNNKTRFILIGREDM | not soluble
MGSDKIHHHHHHMKKYLLYMVQVHLNFRRAELESLADLYNLSIDFSQYDANSPFFIVELENDQQAKDWIKRSILTRGIYEYWGQGTTLDELHKDIQRQSNFEQDLQLKFKHSTFKFEFECYKGNSKAKRVEQIETFRYLGFEGKIDMKHPQEVFTVIEEYTPISENVGGKTPTRIYFGRQVQMSNRSAMEKYDLKKRPYKGTTSFEAELSLVSANIAQVKPGTIMYDPFAGTGSFLVAGGHFGSLVIGSDIDGRMIRGKGAQVNISANFKKYGESSQFLDVLTMDFTNNALRNNLVIDTILCDPPYGIRESIKVLGAKDPERFLGKEDMEIDGEKAYLRRDYIPTKKPYALDSLLDDLLQYSSERLPIGGRLAFWMPTANDANIETIVPMHENLELKYNCVQEFNKWSRRLLVYINRGSTFNGSSNHGIKRSKDNFRERYFNNFN | not soluble
MGSDKIHHHHHHMDIQNMPREQLGVCAEGNLHSVYLMFNANDNVESQLRPCIANVAQYIYELTDQYSDSAFNGFVAIGANYWDSLYPESRPEMLKPFPAMQEGNREAPAIEYDLFVHLRCDRYDILHLVANEISQMFEDLVELVEEERGFRFMDSRDLTGFVDGTENPKGRHRQEVALVGSEDPEFKGGSYIHVQKYAHNLSKWHRLPLKKQEDIIGRTKQDNIEYESEDKPLTSHIKRVNLKDENGKSIEILRQSMPYGSLKEQGLMFISTCRTPDHFEKMLHSMVFGDGAGNHDHLMHFTSALTGSSFFAPSLDFLMQFDN | not soluble
MKQHILVLEDANQRRTIILDEQQYSIGRHSGTSIQIHSRQASRHHATLMRKTNSKTNEECFWIIDGDLEGNKSQNGVFVNGEKRLIHELKNGDLINFGCSINALEHHHHHH | not soluble
MNPNFLDFEQPIADLQAKIEELRLVGNDNSLNIGDEISRLQDKSKTLTESIFGNLTSWQIARMARHPRRPYTLDYIENIFTEFDELHGDRHFSDDAAIVGGIARLDNQPVMIIGHQKGREVREKVRRNFGMPRPEGYRKACRLMEMAERFKMPILTFIDTPGAYPGIDAEERNQSEAIAWNLRVMARLKTPIIATVIGEGGSGGALAIGVCDQLNMLQYSTYAVISPEGCASILWKTAEKAPDAAEAMGITADRLKGLGIVDKVIAEPLGGAHRDPVAAAALIREELSSQLAMLKAFDNDALLARRYDRLMSYGL | not soluble
